{"source": "paper PMC1635724", "target": "6His-PfJ (4.1R binding region of Plasmodium falciparum erythrocyte binding antigen-181, aa 945-1097) (P. falciparum) (UniProt Q8I2B4)", "assay": "pull-down; ~700 ng 6His-PfJ coupled to His-Select magnetic beads, GST-4.1R domain (150 ng to 2 μg; heat denatured protein as control) added for 1 hr at room temperature, rinsed with TBS, eluted with 1% SDS, SDS-PAGE with scanning densitometry; Kd a rough estimate from linear transformations of three curves", "data": [{"substance": "GST-10 kDa domain of human erythrocyte protein 4.1 (4.1R) (domain or fragment)", "values": [{"measurement": "Kd", "result": 745, "unit": "nM"}]}]}
